Measurements from publication PMC3989650.

Target: T1, mTLR9-cECD (C-terminal proteolytic fragment of TLR9 ectodomain) (Mus musculus, UniProt Q9EQU3 474-824)
T1 sequence: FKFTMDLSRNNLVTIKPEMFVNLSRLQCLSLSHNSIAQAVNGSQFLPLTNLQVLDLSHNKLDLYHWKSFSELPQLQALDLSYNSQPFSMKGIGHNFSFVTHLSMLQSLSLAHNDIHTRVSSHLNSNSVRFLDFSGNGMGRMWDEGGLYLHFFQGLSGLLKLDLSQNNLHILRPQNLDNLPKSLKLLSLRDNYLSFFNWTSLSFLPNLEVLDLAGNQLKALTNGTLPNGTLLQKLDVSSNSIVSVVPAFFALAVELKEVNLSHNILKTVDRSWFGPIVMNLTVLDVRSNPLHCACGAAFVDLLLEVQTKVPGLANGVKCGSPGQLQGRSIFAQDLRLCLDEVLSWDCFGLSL
Experiment: fluorescence anisotropy; 20 mM MES pH 5.6, 100 mM NaCl, 2 mM beta-mercaptoethanol, 25 C, 0.2 uM labelled R:D60, protein 10 nM-3.0 uM, 10 min equilibration

B1: R:D60 (Cy3) (DNA:RNA)
RNA: GUGUGUGUGUGUGUGUGUGUGUGUGUGUGUGUGUGUGUGUGUGUGUGUGUGUGUGUGUGU
?: ACACACACACACACACACACACACACACACACACACACACACACACACACACACACACAC
Kd: 27.2 nM

B2: Cy3-ssRNA60 (ssRNA)
RNA: GUGUGUGUGUGUGUGUGUGUGUGUGUGUGUGUGUGUGUGUGUGUGUGUGUGUGUGUGUGU
Kd: 1080 nM

B3: Cy5-ssDNA60 (ssDNA)
DNA: ACACACACACACACACACACACACACACACACACACACACACACACACACACACACACAC
Kd: 142 nM
